Data published in the supplement of paper PMC10567573.

B1: ANKRD17 (parent)
chain: EMVRFLLEAGADQEHKTDEMHTAL

Variants of: B1
Assay: protein stability index of a GFP-peptide fusion (GPS, HEK-293T) (PSI 1-6); higher = more stable
Details: c terminus: a fixed tail appended
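Also: lentivirally expressed fusions sorted by FACS into six bins by GFP to DsRed ratio, PSI derived from sequencing read proportions per bin multiplied by bin number.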

Variant | protein stability index
EMVRFLLENGADQEHKTDEMHTAL | 2.92
EMVRFLLECGADQEHKTDEMHTAL | 2.62
EMVRFLLEQGADQEHKTDEMHTAL | 2.78
EMVRFLLEVGADQEHKTDEMHTAL | 2.29
EMVRFLLEEGADQEHKTDEMHTAL | 3.44
EMVRFLLERGADQEHKTDEMHTAL | 2.03
EMVRFLLEWGADQEHKTDEMHTAL | 1.89
EMVRFLLELGADQEHKTDEMHTAL | 2.59
EMVRFLVEAGADQEHKTDEMHTAL | 3.64
EMVRFLGEAGADQEHKTDEMHTAL | 4.76
EMVRFLREAGADQEHKTDEMHTAL | 4.13
EMVRFLPEAGADQEHKTDEMHTAL | 4.99
EMVRFLAEAGADQEHKTDEMHTAL | 4.08
EMVRFLQEAGADQEHKTDEMHTAL | 4.04
EMVRFLSEAGADQEHKTDEMHTAL | 3.95
EMVRFLKEAGADQEHKTDEMHTAL | 3.7
EMVRFLLEAGADQEHKMDEMHTAL | 2.71
EMVRFLLEAGADQEHKPDEMHTAL | 3.17
EMVRFLLEAGADQEHKLDEMHTAL | 2.22
EMVRFLLEAGADQEHKCDEMHTAL | 2.5
EMVRFLLEAGADQEHKDDEMHTAL | 3.12
EMVRFLLEAGADQEHKEDEMHTAL | 2.99
EMVRFLLEAGADQEHKGDEMHTAL | 2.94
EMVRFLLEAGADVEHKTDEMHTAL | 2.69

Variant | protein stability index
EMVRFLLEAGADWEHKTDEMHTAL | 2.27
EMVRFLLEAGADDEHKTDEMHTAL | 3.77
EMVRFLLEAGADSEHKTDEMHTAL | 2.94
EMVRFLLEAGADPEHKTDEMHTAL | 2.67
EMVRFLLEAGADFEHKTDEMHTAL | 2.11
EMVRFGLEAGADQEHKTDEMHTAL | 4.95
EMVRFELEAGADQEHKTDEMHTAL | 5.28
EMVRFPLEAGADQEHKTDEMHTAL | 5.04
EMVRFRLEAGADQEHKTDEMHTAL | 4.55
EMVRFWLEAGADQEHKTDEMHTAL | 3.25
EMVRFFLEAGADQEHKTDEMHTAL | 3.08
EMVRFKLEAGADQEHKTDEMHTAL | 4.7
EMVRRLLEAGADQEHKTDEMHTAL | 3.77
EMVRMLLEAGADQEHKTDEMHTAL | 2.87
EMVRELLEAGADQEHKTDEMHTAL | 4.71
EMVRILLEAGADQEHKTDEMHTAL | 2.88
EMVRLLLEAGADQEHKTDEMHTAL | 2.56
EMVRVLLEAGADQEHKTDEMHTAL | 3.7
EMVRHLLEAGADQEHKTDEMHTAL | 3.48
EMVRALLEAGADQEHKTDEMHTAL | 3.9
EMVRGLLEAGADQEHKTDEMHTAL | 4.11
EMVRPLLEAGADQEHKTDEMHTAL | 4.91
EMVRYLLEAGADQEHKTDEMHTAL | 2.25
EMQRFLLEAGADQEHKTDEMHTAL | 4.44

Variant | protein stability index
EMMRFLLEAGADQEHKTDEMHTAL | 2.87
EMKRFLLEAGADQEHKTDEMHTAL | 4.2
EMSRFLLEAGADQEHKTDEMHTAL | 4.82
EMTRFLLEAGADQEHKTDEMHTAL | 4.51
EMNRFLLEAGADQEHKTDEMHTAL | 4.47
EMGRFLLEAGADQEHKTDEMHTAL | 4.81
EMHRFLLEAGADQEHKTDEMHTAL | 4.55
EMWRFLLEAGADQEHKTDEMHTAL | 2.65
EMERFLLEAGADQEHKTDEMHTAL | 5.24
EMLRFLLEAGADQEHKTDEMHTAL | 2.62
EMVRFLLEAGADQEHKTDQMHTAL | 1.92
EMVRFLLEAGADQEHKTDNMHTAL | 3.27
EMVRFLLEAGADQEHKTDFMHTAL | 1.97
EMVRFLLEAGADQEHKTDYMHTAL | 1.6
EMVRFLLEAGADQEHKTDCMHTAL | 1.54
EMVRFLLEAGADQEHKTDMMHTAL | 2.01
EMVRFLLEAGADQEHKTDPMHTAL | 1.87
EMVRFLLEAGADQEHKTDEMHTGL | 2.72
EMVRFLLEAGADQEHKTDEMHTDL | 3.06
EMVRFLLEAGADQEHKTDEMHTFL | 2.18
EMVRFLLEAGADQEHKTDEMHTSL | 3.05
EMVRFLLEAGADQEHKTDEMHTCL | 2.49
EMVRFLLEAGADQEHKTDEMHTNL | 3.01
EMVRFLLEAGADQEHKTDEMHTLL | 2.43

Variant | protein stability index
EMVRFLLEAGADQEHKTDEMHTWL | 3.12
EMVRFLLEAGADQEHKTDEMHTIL | 2.97
EMVRFLLEAGADQEHKTDEMHTKL | 2.76
EMVRFLLEAGADQEHKTDEMHTRL | 2.96
EMVRFLLEAGADQEHKTDEMHTTL | 2.74
EMVRFLLEAGADQEHKTDEMHTAP | 2.4
EMVRFLLEAGADQEHKTDEMHTAW | 2.68
EMVRFLLEAGADQEHKTDEMHTAY | 2.95
EMVRFLLEAGADQEHKTDEMHTAE | 3.79
EMVRFLLEAGADQEHKTDEMHTAS | 2.99
EMVRFLLEAGADQEHKTDEMHTAG | 3
EMVRFLLEAGADQEHKTDEMHTAF | 2.34
EMVRFLLEAGADQEHKTDEMHTAI | 2.31
EMVRFLLEAGADQEHKTDEMHTAV | 2.62
EMVRFLLEAGADQEHKTDEMHTAR | 2.72
EMVRFLLEAGADQEHKTVEMHTAL | 1.6
EMVRFLLEAGADQEHKTFEMHTAL | 1.34
EMVRFLLEAGADQEHKTYEMHTAL | 1.44
EMVRFLLEAGADQEHKTQEMHTAL | 2.67
EMVRFLLEAGADQEHKTMEMHTAL | 2.1
EMVRFLLEAGADQEHKTEEMHTAL | 3.16
EMVRFLLEAGADQEHKTNEMHTAL | 2.51
